Laboratory results from the supplement of paper PMC9170038.

Tested on: K4 kissing-loop RNA reporter
Assay: apparent KD of K4 kissing-loop reporter; higher = weaker reporter binding
Conditions: Eterna round: R107
Protocol: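 RNA-MaP round R107: designed RNA switches with theophylline, tryptophan, arginine or FMN aptamers are transcribed on-chip within common flanks. They are titrated with a labelled K4 kissing-loop RNA reporter in RNA-MaP buffer (100 mM Tris pH 7.5, 80 mM KCl, 4 mM MgCl2), without ligand or with the indicated ligand. Median apparent KD per design.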

[1] = input ligand: theophylline 20 uM
[2] = input ligand: tryptophan 2.4 mM
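Note: bound reporter read as fluorescence of individual clusters on recovered sequencing chips by microscopy, with normalized cluster intensities fitted with a binding model.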

Sequence	apparent KD of K4 kissing-loop reporter (input ligand: FMN 200 uM) [µM]	apparent KD of K4 kissing-loop reporter (input ligand: arginine 13.2 mM) [µM]	apparent KD of K4 kissing-loop reporter (input ligand: none) [µM]	apparent KD of K4 kissing-loop reporter [1] [µM]	apparent KD of K4 kissing-loop reporter [2] [µM]
GCUAUGGUAGGAAGGAGCGCUGCGUUGUUUUUACGAGUGAUGUUCGGAAGCGGCGUGUUAAAGCAGGUAGGUCGCCUACUAUAGC [Arginine B K4 24]	0.162	0.135	0.184	0.172	0.154
GCUCAGGAGUGAUGUUCCAAGUGAUGUUAACGAGGACCGGUACGGCCGCCACUCGAUACGGCCGGACCGUAGGAUAAACUAGAGC [Same State - Tryptophan A (Freestyle 9)]	0.2	0.171	0.183	0.313	0.244
GCUCGGGAGUGAUGUUCCAAGUGGUGUUAACGAGGACCGGUACGGCCGCCACUCGAUACGGCCGGGCCGUAGGAUAAACUGGAGC [Same State - Tryptophan A (Freestyle 13)]	0.193	0.123	0.154	0.174	0.152
GGAGAGAACUGAAGGAGCGCCAAGAGAGAAGGAAAUAUAGUGAUGUUAUAUAAGAGAGAGAGGCAGGUAGGUCGCAGAGGGAGGA [#03 K4 Arginine B Exclusion]	0.185	0.162	0.127	0.175	0.112
GGAUAGGACAGAGGAUAUCCUGAGGCAAGAAACUUGUCUCAUAAAGGAUGAAUCCUAGUGAUGUUAGGAGAAGGCUGUCCUAUCG [FmnBX 15 - #SwitchBubble #StaticStem #Palindromic]	0.172	0.0588	0.088	0.104	0.0713
GGAUAGGACAGAGGAUAUGGUAGUGAUGUUACCACGAGACAAAGUCUCGAAAAGCUACAAAGUAGCCCAGAAGGCUGUCCUAUCG [FmnBX 25 #SwitchBubble #StaticStem #Palindromic]	0.402	0.116	0.13	0.114	0.127
GGAUAGGACAUAGGAUAUGGGCUAGGCAAGAAUAACUUGUCUAGCAAAUCCAUGAGGAGUGAUGUUCCAGAAGGGUGUCCUAUCG [FmnBX 1 U11+G75]	0.194	0.105	0.0994	0.111	0.0899
GGAUAGGAUAGAGGAUAUGGUAGUGAUGUUACCAAACUGGUUAAACAUGUCAGAAAACUGGCAUGACCAGAAGGUUGUCCUAUCG [FmnBX 27 U9+U75]	0.0805	0.0571	0.0705	0.0669	0.0615
GGAUCCACCAGUGAUGUUGGAGAAAACUCCAAGGAUAUGACGAAAGUCAGAAGGUGGUAGACUGGACAAAGUCCGGUAGGAUCCA [FmnA10 A78]	0.992	0.0585	0.36	0.228	0.193
GGAUUGCCAGUGAUGUUGGCAUAAUCUGAAGGAGCGCGUGAAAACGCAGGUAGGUCGCAGAACCUUGCCAACUGAUCGAAAGAUC [Ex Arginine A K4 30]	0.145	0.165	0.155	0.185	0.15
GGCAGUGAUGUUGCCUAAGCAACGCAUGCGGAGGAUAUUCGUUCGGGAAGAAGGCCGCAGCGUUCUCUCGAGUGAUGUUCGAGUA [Same State FMN A GF 21]	0.161	0.176	0.176	0.171	0.166
GGCAUAUGAAAUCGCCUAGAGAGAAAGGAUACCAGCACCCGGCGGUGCCCUUGGCAGCCUAGCCCAGUGAUGUUGGGUCCUCUAA [Rasoonanxe]	0.228	0.149	0.167	0.296	0.144
GGCAUGCAUGGAAACAUGCAUGCCAUGCCUCGAGGACCGGUACGGCCGCCACUCGUUAAAAGAAAUGCCAGUGAUGUUGGCCGAA	0.443	0.43	0.528	0.5	0.175
GGCCGGAAGGCGAGCGCUCCCACUCCGGAAGGAGCGCCCGCAAGGGCAGGUAGGUCGCCGGAGUGAUGUUCCGGUGGAGGGCUCG [#2 Exclusion - Arginine A Attempt #20 (Inspired by Omei)]	0.185	0.308	0.379	0.00889	0.136
GGGAAGUACGGAGGAUAUGCACUGAGGAGGAGAAUAUAGUGAUGUUAUAUAAGAGGAAGGAGAAGAGUAGAAGGCCGUGGAAAGG [SSFMNB.C]	0.175	0.115	0.228	0.151	0.117
GGGAGUAGUGCGGCCGCCACUGAGAAAGAAGAAGAAUAUAGUGAUGUUAUAUAGGAAGGGAAGAACAGGACCGGGCAUUAGAUUU [SSTRyptB.Y]	0.24	0.306	0.38	0.311	0.222
GGGAGUGAUGUUCCCACGUUGUCGGUCCUCCGAGGACCGGUACGGCCGCCACUCGCGACCCAGUGAUGUUGGGACUCACCGUACC [Exclusion Tryptophan A Gf 12]	0.509	0.377	0.558	0.557	0.218
GGGCCUCUGGCUGAUACCAGUGAUAAAGGGUAAGAGACAGGGAGUGAUGUUCCCUUUAGCCACCCUUGGCAGCAGUUUAAGUUUG [Exclusion Theophylline B GF 18]	0.0848	0.0828	0.0855	0.0866	0.0773
GGGCCUCUGGCUGAUACCAGUGAUGCAGGGUCCGAGACAGGGAGUGAUGUUCCCUGCAGCCACCCUUGGCAGCAGUUUAAGUUUG [Exclusion Theophylline B GF 19]	0.136	0.124	0.122	0.124	0.129
GGGCGCGGCGCGGCCGCCACUGGGCCUGGGCGCGCGCCGAGUGAUGUUCGCCUGCGGCUGGGUCGUAGGACCGGGUGCCGGCUGG [BDazzled 1]	0.422	0.202	0.311	0.376	0.188
GGGUCAGUCUGAAGGAGCGGCCAGACAGAGCAGUGAUGUUGCUCCUAAUUUAAAAGUGUCGGCCAGGUAGGUCGCAGAUUGGCUC [Dienralais]	0.154	0.127	0.161	0.152	0.165

Sequence	apparent KD of K4 kissing-loop reporter (input ligand: FMN 200 uM) [µM]	apparent KD of K4 kissing-loop reporter (input ligand: arginine 13.2 mM) [µM]	apparent KD of K4 kissing-loop reporter (input ligand: none) [µM]	apparent KD of K4 kissing-loop reporter [1] [µM]	apparent KD of K4 kissing-loop reporter [2] [µM]
GGGUGGUAGGCGGCCGCCACUCUGAGCACCCACUGAGUGAUGUUCGUGGCGUAAGCCUGUUCAUAGAGGACCGGGUUUGUUGUUC [Exclusion Tryptophan B GF 16]	0.507	0.252	0.514	0.47	0.376
GGUAGCAUGGCGGCCGCCACUCUUCAUUAGUGAUGUUAAUGCCGAGUGGGCAAACUCCGCCAGGAGAGGACCGGGCCAUGCUACC	0.0826	0.0751	0.0808	0.0627	0.244
GGUAGCAUGGCGGCCGCCACUGCAAAGCAUAGCUACGGAAACGUAGCUACAGAGUGAUGUUCUGGCAGGACCGGGCCAUGCUACC	0.675	0.487	0.692	0.683	0.33
GGUAGCAUGGCGGCCGCCACUGUCUAGUGAUGUUAGACCCGACGUGGAUUCAAGACAGUCGGAAACAGGACCGGGCCAUGCUACC	0.39	0.229	0.33	0.163	0.179
GGUCCGGGCUCGGCCGCCACUCCCUCCUGCCGGAAGGUGGGAUACCGAGUGAUGUUCGGUUGGAGGAGGACCGGGAGCCCGGACC [#2 Exclusion - Tryptophan B Attempt #13 (HarryS)]	0.132	0.106	0.123	0.161	0.129
GGUGACUACCAGAGGUGAUGUAUAGUAUCGCGAGGACCGGUACGGCCGCCACUCGUGAAGAGAAAGGAGUGAUGUUCCGUAAUGG [Kazoo C8]	0.396	0.315	0.323	0.627	0.16
GGUGCUGUCUGUGCCGCCCUCCUCGUUCCUCGAGGACCGGUACGGCCGCCACUCGAGUGAUGUUUGGGUAGCGAUCCCUGCUAGC [Bdazzled - #16 Exc. Tryptophan A]	0.792	0.719	1.06	0.801	0.696
GGUGUUGUUUGUGCUGUUUUCUUUGUUUCUCGAGGACCGGUACGGCCGCCACUCGAGUGAUGUUUGGGUAGUGAUGUUUGUUAGU [Bdazzled #1 Exc. TA]	0.241	0.147	0.198	0.18	0.239
GGUUUAUAGGAGGAUACCAGUACGGAUAAAGUACGUUAAUAGUAGAGUGAUGUUCUAAAGUACCCUUGGCAGCUUAGAGUAAGUU [ExTheophylB.K]	0.0858	0.147	0.105	0.117	0.0634
GUAACCUUGCUCGAGUGAUGUUCGAGCGAAGGAGCGCGAGAAAUCGCAGGUAGGUCGCGCUCGAAAUUUGAGCGAACAAUUAUUA [Arg A Ex t2]	0.128	0.125	0.138	0.123	0.113
GUAGACGUACCUUCAGUGAUGUUGAAGGAUACCAGAUGUUACCACAUCCCUUGGCAGCCUUGGGAUAACAGUGAGUCGGAAUAUG [Uslediti]	0.176	0.136	0.158	0.166	0.142
GUAGGAUGGUGCGAUACCAGACCUGCAGUGAUGUUGCGCCAUAGUGAGUGAUGUUCACCGGUCCCUUGGCAGCGCGUCCAUAAAG [Same State Theophylline B GF 17]	1.06	0.719	1.25	1.16	0.882
GUAUAAGUGGGCGAUACCAGCUGUCGGUAGUGAUGUUAUUCAGCAGUCAGGAAGUUCGCUAGCCCUUGGCAGCGCCAGUGGUGAC [theeternabot_exclusion_KL_Theo_B_19]	0.383	0.324	0.416	0.351	0.341
GUAUCAGUGAUGUUGGUAGGCGAGCGGGAUACCAGCCAAGACUCAGGCCCUUGGCAGCCCACAUAUCCCACGUAGAUAGUAGCUC [Same State - Theophylline A (Freestyle 15)]	0.155	0.0956	0.149	0.139	0.133
GUAUCGCUAGGAGGAUAUUUCAAUCUGACUCUUUGAGUUAGUACGGAGUGAUGUUCCGAUUUACGGAAAGAAGGCCUAGUGAUAC [FMN B 11]	0.142	0.312	0.378	0.264	0.299
GUAUGUGAUGGAAACAUCGCAUACACUGAUACCAGUAUCGAUAGAUACCCUUGGCAGCAGAAAACUGCAAUUGGAGUGAUGUUCC [Ex Theophylline A K4 1]	0.213	0.175	0.229	0.216	0.201
GUCAUCAGAUCGCAAGAUCUGAUAGCCGAUACCAGCGCGAAGGUGCGCCCUUGGCAGCGGCACCGAGUGAUGUUCGGUCAGACGA [#2 Same State - Theophylline A Attempt #5 (HarryS)]	0.526	0.392	0.514	0.33	0.427
GUCCCGAGUGAUGUUCGGGUCGUUCGGGAAGGAGCGCCCGCAAGGGCAGGUAGGUCGCCCGGAUCCCUCAGGUAACUGAGGGACC [#2 Same State - Arginine A Attempt #26 (HarryS)]	0.632	0.428	0.491	0.467	0.465
GUCUCAAAAGAGGCAAGCACUCACGAGGACAAGGAUAUCAUAUCAAUGAGAAGGUGUCCUCGUCCUUAGUGAUGUUAAGGAGUGC [Omei KL FMN A SS E v3]	0.297	0.298	0.357	0.196	0.33
GUCUCAAAAGAGGCAAGCACUCACGAGGACAAGGAUAUCAUCUCAAUGAGAAGGUGUCCUCGUCCCUAGUGAUGUUAGGGAGUGC [Omei KL FMN A SS E v2]	0.211	0.334	0.368	0.478	0.468
GUCUCGAGUGAUGUUCGGGUCGAUUGGGAAGGAGCGCCCGGAAGGGCAGGUAGGUCGCCCGGACCGCGCGGGCAACCGCGCGGCC [#2 Same State - Arginine A Attempt #11 (HarryS)]	0.186	0.108	0.147	0.141	0.163
